Values of other authors, collected in PMC9414616.
pKd: −log10 of the molar value.

Molecular target: NTSR2 (UniProt O95665)
UniProt O95665, sequence (O95665 whole entry): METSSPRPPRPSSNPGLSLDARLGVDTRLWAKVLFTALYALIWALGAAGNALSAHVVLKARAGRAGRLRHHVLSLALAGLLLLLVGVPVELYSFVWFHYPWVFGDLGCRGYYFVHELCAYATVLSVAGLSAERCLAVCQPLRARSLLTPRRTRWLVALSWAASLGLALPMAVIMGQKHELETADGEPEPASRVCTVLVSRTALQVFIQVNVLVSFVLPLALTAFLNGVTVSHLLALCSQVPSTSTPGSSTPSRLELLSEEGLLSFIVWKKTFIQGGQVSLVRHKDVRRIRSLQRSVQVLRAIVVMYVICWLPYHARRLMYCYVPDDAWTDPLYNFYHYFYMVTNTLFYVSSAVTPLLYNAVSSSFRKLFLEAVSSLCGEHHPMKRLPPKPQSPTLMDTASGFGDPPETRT

pKd: 8.40
Substance: neurotensin (from UniProt P30990)
